PMC5389471 (Nucleic Acids Research, 2016)

Key:
[1] = molecular target: AibR, TetR-like transcriptional regulator of the AIB-operon (Myxococcus xanthus); experiment: SEC
[2] = molecular target: AibR, TetR-like transcriptional regulator of the AIB-operon (Myxococcus xanthus); experiment: crystal structure
AibR [3] = molecular target: T1, AibR (Myxococcus xanthus, UniProt Q1D4I5); experiment: MST Kd with Cy5-labelled AibR; format: binding
T1 sequence (Q1D4I5 1-228): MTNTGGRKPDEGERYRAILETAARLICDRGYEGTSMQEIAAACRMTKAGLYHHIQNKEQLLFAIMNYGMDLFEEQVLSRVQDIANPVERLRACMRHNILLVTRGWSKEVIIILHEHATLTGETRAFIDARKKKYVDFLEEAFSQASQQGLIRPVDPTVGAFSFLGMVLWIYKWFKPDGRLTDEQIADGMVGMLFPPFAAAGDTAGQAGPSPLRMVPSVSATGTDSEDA

AibR [4] = molecular target: T2, AibR (UniProt Q1D4I5 1-228); experiment: EMSA
T2 sequence: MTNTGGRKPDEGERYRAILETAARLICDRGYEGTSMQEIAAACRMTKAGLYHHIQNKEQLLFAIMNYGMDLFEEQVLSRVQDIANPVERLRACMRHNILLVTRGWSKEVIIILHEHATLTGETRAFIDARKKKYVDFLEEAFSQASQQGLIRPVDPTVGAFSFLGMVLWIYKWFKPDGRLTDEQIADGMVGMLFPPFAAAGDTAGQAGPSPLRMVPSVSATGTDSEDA

AibR [5] = molecular target: T2, AibR; experiment: MST
AibR [6] = molecular target: T2, AibR; experiment: crystal structure

Question: With “AibR, TetR-like transcriptional regulator of the AIB-operon (natural protein)” as the molecule, how does the stoichiometry N [1] read?
Answer: 2

Question: And the stoichiometry N [2]?
Answer: 2

Question: For `CC(C)=CC(=O)SCCNC(=O)CCNC(=O)[C@H](O)C(C)(C)COP(=O)(O)OP(=O)(O)OC[C@H]1O[C@@H](n2cnc3c(N)ncnc32)[C@H](O)[C@@H]1OP(=O)(O)O` [3,3-dimethylacrylyl coenzyme A], which Kd (AibR [3]) is on record?
Answer: 5800 ± 1510 nM

B1: aibR-Cy5 40 bp (dsDNA)
DNA 1: CCGCGTCGGGCGCTGCTACCTACCGGTCGGTAGGTCTCCA
DNA 2: TGGAGACCTACCGACCGGTAGGTAGCAGCGCCCGACGCGG
Question: Which Kd (AibR [4]) does the source give for B1 here?
Answer: 233 ± 20 nM

B2: aibR8 (dsDNA)
DNA 1: CCGCGTCGGGCGCTGCTACCTACCGGTCGGTAGGTCTCCA
DNA 2: TCATCCGCGCCATGGAGACCTACCGACCGGTAGGTAGCAGCGCCCGACGCGG
Question: Does B2 bind (AibR [4])?
Answer: binds

B3: 3aibR12 (G12T) (dsDNA)
DNA 1: CGCTGCTACCTACCGGTCTGTAGGTCTCCA
DNA 2: TCATCCGCGCCATGGAGACCTACAGACCGGTAGGTAGCAGCG
Question: Does B3 bind (AibR [4])?
Answer: no binding

B4: Cy5 21 bp operator (dsDNA)
DNA 1: GCTACCTACCGGTCGGTAGGT
DNA 2: ACCTACCGACCGGTAGGTAGC
Question: B4 was tested. Which Kd (AibR [5]) did it give?
Answer: 2300 ± 850 nM

B5: 16-bp palindrome (nt 2-17, G9A) (dsDNA)
DNA 1: CCTACCGATCGGTAGG
DNA 2: CCTACCGATCGGTAGG
Question: Does B5 bind (AibR [6])?
Answer: binds

B6: P3791 (dsDNA)
DNA 1: CCCCTGCCCAACCTACCGGTCGGACGGTTCCTAGCGGG
DNA 2: TCATCCGCGCCACCCGCTAGGAACCGTCCGACCGGTAGGTTGGGCAGGGG
Question: Does B6 bind (AibR [4])?
Answer: binds
